The assay addresses recombinant TIMP-3 (human or mouse; Table 2 does not say which). The assay can be described thus: AlphaScreen, biotinylated TIMP-3, Assay 1. In general terms: Bead proximity is the source of the signal in Alpha formats.

recombinant TIMP-3 (human or mouse; Table 2 does not say which), sequence (P35625 24-211): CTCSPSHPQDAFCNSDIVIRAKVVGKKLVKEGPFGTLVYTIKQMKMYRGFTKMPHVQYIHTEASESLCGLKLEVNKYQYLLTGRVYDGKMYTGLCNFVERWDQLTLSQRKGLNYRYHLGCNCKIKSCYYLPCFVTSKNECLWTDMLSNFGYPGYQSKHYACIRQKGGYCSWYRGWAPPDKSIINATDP

B1: LRP-1 peptide LA20 (peptide)
chain: CNASSQFLCSSGRCVAEALLCNGQDDCGDSSDERGCHINE
In the case of B1, the total signal (cps) turned out to be 2200 cps.
